Legend:
[1] = tested on: ceramide-activated protein kinase; experiment: EGFR peptide phosphorylation in a cell-free system (HL-60 nuclei-free supernate); assay type: biochemical, human (HL-60 cells)
Method: Effect of TNF-α on ceramide-activated protein kinase activity. HL-60 cells were incubated in serum-free medium and homogenized (as in FIG. 9). […] ATP (750 μM, 4000 dpm pmol^-1), and 75 μl of reaction buffer. […] Phosphorylated peptide was first run on a C18 Sep-Pak cartridge, then resolved by C18 reverse-phase HPLC (Waters, Milford, Mass.), with a linear gradient of acetonitrile. The peptide eluted at 30% acetonitrile, as determined by monitoring Cerenkov radiation in 1-ml fractions. Background activity was subtracted from each point. (A) Kinetics of TNF-α (30 nM)-stimulated EGFR peptide phosphorylation. Values (mean) represent data from four experiments. (B) Concentration dependence of EGFR peptide phosphorylation at 5 minutes of stimulation with TNF-α (0.01 to 30 nM). Values (mean) represent data derived from duplicate points in two experiments. The SEM of the values in (A) was 18% and the mean range of values in (B) was 3%.
Effect of phospholipases on ceramide-activated protein kinase activity. Nuclei-free supernates, prepared as in FIG. 9, were first incubated with TNF-α (3 nM) or added directly to reaction mixtures that contained various phospholipases; sphingomyelinase (SMase) (1×10^-3 U ml^-1, S. aureus), phospholipase A2 (PlA2) (3.8×10^-2 and 3.8×10^-1 U ml^-1, Vipera ruselli), phospholipase C (PLC) (3.8×10^-2 U ml^-1, Bacillus cereus) and phospholipase D (PLD) (3.8×10^-2 U ml^-1, Streptomyces chromocuscus). Peptide phosphorylation was measured as in FIG. 10. Control value represents peptide phosphorylation in the absence of phospholipases or TNF-α. Values (mean±SEM) represent data derived from duplicate samples in three experiments. *P<0.001 compared to control.
The effect of TNF-α on ceramide-activated protein kinase activity was assessed. […] For studies assessing the effect of TNFα in broken cell preparations, nuclei-free supernates were incubated under conditions sufficient for stimulation of neutral sphingomyelinase in a reaction mixture that also contained EGFR peptide and γ-^32 P-labeled ATP. Phosphorylated peptide was resolved by high-performance liquid chromatograph (HPLC) and quantified by Cerenkov counting. Kinase activity was calculated from the specific activity of [γ-^32 P] ATP and incorporation of ^32 P into EGFR peptide. Background activity was subtracted from each point. […] TNF-α stimulation of kinase activity was evident by 1 minute and demonstrable for at least 10 minutes. If the initial incubation with TNF-α at 4° C. was omitted and TNF was added directly to the reaction mixture at 22° C., the reaction was delayed. […] TNF-α enhanced kinase activity in a concentration-dependent manner at 5 minutes (FIG. 10B). […] This is similar to the ED50 of 200 pM for stimulation of ceramide-activated protein kinase by TNF-α in intact cells. TNF-α enhanced kinase activity in a total of 20 separate studies.
Control activity reflects several TNF-α-independent protein kinases that are known to phosphorylate EGFR peptide on Thr^669.

Raf-1 = Raf-1 phosphorylation in vitro by renatured CAP kinase; assay type: biochemical, human (recombinant Raf-1); conditions: CAP kinase from TNF-stimulated HL-60 cells
Description: The data represent one of five similar experiments.
The data represent one of four similar experiments.
The data represent one of three similar experiments.
CAP kinase was the only kinase to renature from HL-60 cell membranes and that this activity was exclusively membrane-bound, since no 100-110 kDa activity could be renatured from cytosolic fractions. […] Conditions for CAP kinase activity were optimized previously using myelin basic protein (MBP) or a peptide derived from the amino acid sequence surrounding Thr669 of the epidermal growth factor receptor as substrates.
FIG. 17A--HL-60 cells were incubated in serum-free RPMI [RPMI containing 16 mg/ml serine, 8.4 mg/ml asparagine, 16.7 mg/ml glutamine, 25 mM HEPES, pH 7.4 and 0.5 mg/ml each of insulin and transferrin] at 1×106 ml^-1 for 2 hr, followed by stimulation with TNF (1 nM) for 20 min. […] Centrifugation for 5 min at 700×g yielded a post-nuclear supernate from which microsomal membranes were prepared by centrifugation at 250,000×g for 30 min. Microsomal membranes were resuspended into homogenizing buffer and proteins (30×10^6 cell equivalents/lane)were resolved on a 7.5% SDS-polyacrylamide gel. CAP kinase was renatured as described by Liu et al.. […]

Q: For TNF-α, which “concentration of maximal effect (kinase activity)” value ([1]; 5 minutes) is on record?
A: 3 nM

Q: And the “effective concentration (kinase activity)” value ([1]; 5 minutes)?
A: 10 pM

Q: What about the “ED50 for kinase activity” value ([1]; 5 minutes, cell-free) of the same substance?
A: ≈ 300 pM

Q: What about the “onset of stimulation of kinase activity” value ([1]; TNF-α 30 nM, P<0.001) of the same substance?
A: ≤ 1 min

Q: What about the “enhancement of Raf-1 phosphorylation” value (Raf-1) of the same substance?
A: 4-5 fold

Reference: patent US6040149A, “Assay for identifying agents which act on the ceramide-activated protein kinase, kinase suppressor of ras, and methods of using said agents” (priority 1997, dated 2000)
